Experimental data: article PMC2362091, “Expression of V1A and GRP receptors leads to cellular transformation and increased sensitivity to substance-P analogue-induced growth inhibition” (British Journal of Cancer, 2005)

Biological target: arginine vasopressin (AVP) (Homo sapiens), P01185
Assay: competition

Sequence of arginine vasopressin (AVP) (Homo sapiens), P01185 (P01185 whole entry, looked up): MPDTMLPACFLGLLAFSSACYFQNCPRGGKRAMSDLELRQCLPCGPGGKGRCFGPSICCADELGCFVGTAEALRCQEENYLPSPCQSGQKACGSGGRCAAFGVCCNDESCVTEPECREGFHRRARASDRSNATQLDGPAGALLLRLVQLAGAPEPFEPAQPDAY

B1: V1A receptor, P37288 (protein)
chain: MRLSAGPDAGPSGNSSPWWPLATGAGNTSREAEALGEGNGPPRDVRNEELAKLEIAVLAVTFAVAVLGNSSVLLALHRTPRKTSRMHLFIRHLSLADLAVAFFQVLPQMCWDITYRFRGPDWLCRVVKHLQVFGMFASAYMLVVMTADRYIAVCHPLKTLQQPARRSRLMIAAAWVLSFVLSTPQYFVFSMIEVNNVTKARDCWATFIQPWGSRAYVTWMTGGIFVAPVVILGTCYGFICYNIWCNVRGKTASRQSKGAEQAGVAFQKGFLLAPCVSSVKSISRAKIRTVKMTFVIVTAYIVCWAPFFIIQMWSVWDPMSVWTESENPTITITALLGSLNSCCNPWIYMFFSGHLLQDCVQSFPCCQNMKEKFNKEDTDSMSRRQTFYSNNRSPTNSTGMWKDSPKSSKSIKFIPVST
**Q.** B1 was tested. Which Kd did it give?
**A.** Its Kd is 2.98 nM.
